Patent US6555522B1, “Peptides and other small molecules derived from regions of interacting proteins and uses thereof” (Mount Sinai School of Medicine of the City of New York, priority 1998, dated 2003)
Entries after “also recorded” stand apart in the source; their conditions may differ. Blank lines part the entries; values can stand above or below the substance they belong to. Ends that are not written are not given here.

Columns and labels:
[1] = biological target: T1, phospholipase C-β2 (PLC-β2) (Homo sapiens, UniProt Q00722); assay: PLC assay, [3H]PIP2 hydrolysis by recombinant PLC-β2; format: biochemical; conditions: for stimulation of PLC-β2 activity by peptide itself (in words): basal, no Gβγ unless stated, short peptides at 100 μM; for affinity of PLC-β2 stimulation compared with parent or comparator peptide (in words) / maximal stimulation / efficacy on PLC-β2 (in words): concentration-effect curves; for effect on Gβγ stimulation of PLC-β2 (in words): Gβγ 100 nM
T1 construct: made in house; host or cells: High 5 insect cells (baculovirus); cytosolic fraction used, not purified
T1 sequence (Q00722 whole entry): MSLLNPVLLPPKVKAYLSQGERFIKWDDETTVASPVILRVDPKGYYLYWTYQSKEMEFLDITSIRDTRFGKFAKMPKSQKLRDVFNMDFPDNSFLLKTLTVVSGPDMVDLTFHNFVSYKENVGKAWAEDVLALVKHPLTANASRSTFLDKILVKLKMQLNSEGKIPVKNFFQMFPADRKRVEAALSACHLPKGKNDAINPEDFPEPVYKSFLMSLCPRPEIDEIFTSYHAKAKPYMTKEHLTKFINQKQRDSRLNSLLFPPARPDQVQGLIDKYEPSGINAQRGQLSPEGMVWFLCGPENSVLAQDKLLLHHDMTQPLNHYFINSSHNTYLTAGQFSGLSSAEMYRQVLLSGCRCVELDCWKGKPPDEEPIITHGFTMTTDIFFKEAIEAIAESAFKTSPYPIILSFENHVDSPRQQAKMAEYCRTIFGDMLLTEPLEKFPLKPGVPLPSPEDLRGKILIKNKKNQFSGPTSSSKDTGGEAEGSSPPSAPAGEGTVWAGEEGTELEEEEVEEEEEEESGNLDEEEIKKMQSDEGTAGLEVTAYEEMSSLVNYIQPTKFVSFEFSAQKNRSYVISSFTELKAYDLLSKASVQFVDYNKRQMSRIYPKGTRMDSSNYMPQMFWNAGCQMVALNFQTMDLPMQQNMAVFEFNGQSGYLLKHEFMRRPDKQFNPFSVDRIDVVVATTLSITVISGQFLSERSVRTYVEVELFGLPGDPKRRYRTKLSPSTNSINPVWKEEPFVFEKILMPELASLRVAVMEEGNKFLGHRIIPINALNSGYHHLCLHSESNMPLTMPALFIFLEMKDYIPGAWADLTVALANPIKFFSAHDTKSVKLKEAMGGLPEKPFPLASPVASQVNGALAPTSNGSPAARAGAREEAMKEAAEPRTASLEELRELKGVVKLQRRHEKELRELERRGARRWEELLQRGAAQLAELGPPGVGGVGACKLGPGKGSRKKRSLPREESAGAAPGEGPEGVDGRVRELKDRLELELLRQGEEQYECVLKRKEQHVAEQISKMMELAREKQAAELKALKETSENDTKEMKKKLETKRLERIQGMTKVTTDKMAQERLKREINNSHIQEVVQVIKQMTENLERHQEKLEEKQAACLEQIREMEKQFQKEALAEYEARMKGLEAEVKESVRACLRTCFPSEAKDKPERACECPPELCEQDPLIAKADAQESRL
Procedure: Recombinant PLC-β2 was expressed in High 5 cells by infection with recombinant baculovirus. Three to four days after infection, the cells were lysed by par bombing to 600 psi. The lysate was then centrifuged, and the cytosolic fraction was collected. Approximately 10-15 μg of cytosolic fraction was used per 100 μl reaction volume. Phospholipid substrate is a mixture of [3H]PIP2 and unlabeled phospholipids. Unlabeled phospholipids, from Sigma (P-6023), are crude phospholipids from bovine brain. The total diphosphoinositide and triphosphoinositide content is 20-40%. The remainder is a mixture of phosphotidylinositol and phosphotidylserine. Phospholipids are sonicated in 10 mM Hepes pH 7.0 to form micelles. A total of 0.01 μCi of [3H]PIP2, corresponding to approximately 7000 cpm, and 5 μg of unlabeled mixed phospholipids are used per reaction.
The PLC assay was performed as previously described (De Vivo, 1994, Meth. Enzymol. 238, 131). Briefly, substrate, PLC-β2, peptide, and Gβγ subunits are mixed on ice in a 100 μl volume buffer containing 10 mM Hepes pH 7.0, 1 mM DTT, 100 mM KCl, 10 mM NaCl, 2 mM EGTA, 1 mM EDTA, and 1 mM MgCl2. Reactions are started by the addition of 25 μl 5 mM CaCl2 and incubated at 32 degrees C. for 15 minutes. Reactions are stopped by the addition of 1 ml CMH (chloroform:methanol:H2O=100:100:1 by volume) and 250 μl 10 mM EDTA. After extraction, 400 μl aqueous phase is counted using a Beckman scintillation counter. All experiments were repeated at least thrice with very similar results. For concentration-effect curves, typical experiments are shown.

adenylyl cyclase 2 (AC2) = biological target: T2, adenylyl cyclase 2 (AC2) (Rattus norvegicus, UniProt P26769); assay: Adenylyl cyclase assay, recombinant AC2 in Sf9 cell membranes; format: biochemical; conditions: αs* 2 nM plus Gβγ 50 nM; TTN at 100 μM
T2 construct: made in house; host or cells: Sf9 cells (baculovirus); membranes used
T2 sequence (P26769 whole entry): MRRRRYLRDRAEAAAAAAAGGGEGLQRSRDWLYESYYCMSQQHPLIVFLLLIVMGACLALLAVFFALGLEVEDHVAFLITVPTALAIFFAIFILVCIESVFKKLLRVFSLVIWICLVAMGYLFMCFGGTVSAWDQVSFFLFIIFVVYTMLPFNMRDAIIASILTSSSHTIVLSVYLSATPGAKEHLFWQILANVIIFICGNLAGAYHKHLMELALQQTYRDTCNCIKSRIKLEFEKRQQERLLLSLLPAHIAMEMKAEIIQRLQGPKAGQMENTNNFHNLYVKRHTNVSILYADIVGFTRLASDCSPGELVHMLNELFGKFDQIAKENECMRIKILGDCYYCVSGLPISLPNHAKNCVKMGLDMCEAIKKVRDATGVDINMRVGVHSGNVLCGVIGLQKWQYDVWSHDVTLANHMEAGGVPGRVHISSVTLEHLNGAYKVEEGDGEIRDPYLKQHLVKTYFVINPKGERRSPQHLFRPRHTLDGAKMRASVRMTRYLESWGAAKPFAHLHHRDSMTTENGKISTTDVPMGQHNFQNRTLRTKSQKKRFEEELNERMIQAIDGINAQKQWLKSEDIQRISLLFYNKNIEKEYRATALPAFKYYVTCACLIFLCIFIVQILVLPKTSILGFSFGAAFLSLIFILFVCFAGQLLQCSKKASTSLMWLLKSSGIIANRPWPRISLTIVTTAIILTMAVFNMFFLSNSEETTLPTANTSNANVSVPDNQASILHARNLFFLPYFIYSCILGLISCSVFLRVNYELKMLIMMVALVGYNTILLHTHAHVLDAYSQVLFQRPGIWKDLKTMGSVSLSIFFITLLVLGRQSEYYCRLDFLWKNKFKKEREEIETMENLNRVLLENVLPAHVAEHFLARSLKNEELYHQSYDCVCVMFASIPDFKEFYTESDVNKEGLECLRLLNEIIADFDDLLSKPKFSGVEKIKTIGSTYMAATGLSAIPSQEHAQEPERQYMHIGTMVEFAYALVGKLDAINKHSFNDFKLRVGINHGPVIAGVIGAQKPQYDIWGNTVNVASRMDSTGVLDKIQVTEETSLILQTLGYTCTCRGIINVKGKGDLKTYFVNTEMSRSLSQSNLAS
Description: (§1) Expression of G-Protein Subunits And Adenylyl Cyclases. Gβγ was purified from bovine brain (Dingus et al., 1994, Meth. Enzymol. 237, 457-471). Q227L-Gαs was expressed in rabbit reticulocyte lysates. AC2 was expressed in Sf9 cells by infection with recombinant baculovirus (Jacobowitz and Iyengar, 1994, Proc. Natl. Acad. Sci. U.S.A. 91, 10630-10634). AC2 assays have been described (Chen et al., 1995, Science 268, 1166-1169). Bovine AC1 (Jacobowitz et al., 1993, J. Biol. Chem. 268, 3829-3832) was epitope tagged at the N terminus with the FLAG epitope (Jacobowitz and Iyengar, 1994, Proc. Natl. Acad. Sci. U.S.A. 91, 10630-10634) and expressed in Sf9 cells by baculovirus infection.
Adenylyl Cyclase Assays. AC2 assays have been described (Chen et al., 1995, Science 268, 1166-1169). When required the peptides were mixed with adenylyl cyclase containing membranes and held on ice for 10 min prior to assays. Approximately 1-4 μg of AC2 Sf9 cell membranes per assay tube was used. All assays contained a mixture of protease inhibitors. The final concentration of each inhibitor was leupeptin at 3.2 μg/ml, aprotinin at 2 μg/ml, phenanthroline at 1.0 mM, and phenylmethylsulfonyl fluoride at 1.0 mM. To study Gβγ inhibition, AC1-containing Sf9 cell membranes (1-4 μg per assay tube) was used. […]

adenylyl cyclase 1 (AC1) = biological target: T3, adenylyl cyclase 1 (AC1) (Bos taurus, UniProt P19754); assay: Adenylyl cyclase assay, recombinant AC1 in Sf9 cell membranes; format: biochemical, bovine; conditions: for inhibition of Ca2+/CaM-stimulated AC1 activity by peptide alone (in words): CaM 100 nM; for blockade of Gβγ inhibition of Ca2+/CaM-stimulated AC1: CaM 100 nM plus Gβγ 30 nM
T3 construct: made in house; host or cells: Sf9 cells (baculovirus); membranes used
T3 sequence (P19754 whole entry): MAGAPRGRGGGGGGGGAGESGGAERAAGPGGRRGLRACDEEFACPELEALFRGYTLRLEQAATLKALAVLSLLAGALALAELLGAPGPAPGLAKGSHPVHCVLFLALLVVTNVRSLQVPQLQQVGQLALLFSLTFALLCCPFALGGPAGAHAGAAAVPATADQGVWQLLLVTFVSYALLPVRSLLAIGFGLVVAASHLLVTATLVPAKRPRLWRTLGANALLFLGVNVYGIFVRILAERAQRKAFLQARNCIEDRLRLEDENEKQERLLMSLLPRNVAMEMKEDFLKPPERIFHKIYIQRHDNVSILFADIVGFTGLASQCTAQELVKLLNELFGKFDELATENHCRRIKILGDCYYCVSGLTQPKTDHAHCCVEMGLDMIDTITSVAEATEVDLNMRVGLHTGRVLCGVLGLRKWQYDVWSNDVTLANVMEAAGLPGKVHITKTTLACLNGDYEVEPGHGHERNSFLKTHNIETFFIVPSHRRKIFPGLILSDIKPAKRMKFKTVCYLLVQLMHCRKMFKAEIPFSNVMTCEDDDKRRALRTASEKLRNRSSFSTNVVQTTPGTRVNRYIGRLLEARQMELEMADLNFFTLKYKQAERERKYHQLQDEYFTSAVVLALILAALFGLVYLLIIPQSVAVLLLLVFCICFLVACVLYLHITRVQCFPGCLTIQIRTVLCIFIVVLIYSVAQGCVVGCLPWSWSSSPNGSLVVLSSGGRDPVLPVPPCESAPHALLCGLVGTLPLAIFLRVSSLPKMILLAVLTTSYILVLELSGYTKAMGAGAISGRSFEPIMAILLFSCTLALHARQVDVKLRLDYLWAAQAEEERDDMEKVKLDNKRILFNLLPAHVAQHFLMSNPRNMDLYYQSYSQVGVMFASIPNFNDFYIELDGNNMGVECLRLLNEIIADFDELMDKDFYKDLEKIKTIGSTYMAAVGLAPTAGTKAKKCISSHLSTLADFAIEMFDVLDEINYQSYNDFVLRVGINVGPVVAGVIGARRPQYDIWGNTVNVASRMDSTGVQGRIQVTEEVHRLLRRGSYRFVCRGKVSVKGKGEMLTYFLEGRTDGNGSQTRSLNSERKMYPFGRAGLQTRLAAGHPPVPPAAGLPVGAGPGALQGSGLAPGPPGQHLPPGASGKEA
Description: as §1
Adenylyl Cyclase Assays. AC2 assays have been described (Chen et al., 1995, Science 268, 1166-1169). When required the peptides were mixed with adenylyl cyclase containing membranes and held on ice for 10 min prior to assays. Approximately 1-4 μg of AC2 Sf9 cell membranes per assay tube was used. All assays contained a mixture of protease inhibitors. The final concentration of each inhibitor was leupeptin at 3.2 μg/ml, aprotinin at 2 μg/ml, phenanthroline at 1.0 mM, and phenylmethylsulfonyl fluoride at 1.0 mM. To study Gβγ inhibition, AC1-containing Sf9 cell membranes (1-4 μg per assay tube) was used. In these assays, in addition to the other standard reagents, the assay mixture contained either 1 mM EGTA or 50 μM CaCl2 plus 100 nM calmodulin (CaM). All experiments were repeated two or more times with qualitatively similar results. Typical experiments are shown. Values are mean±SD of triplicate determinations.

PLC-β2 = biological target: T4, PLC-β2 (Homo sapiens, UniProt Q00722); assay: Fluorescent resonance energy transfer binding of DABMI-labeled peptide to Cascade Blue-labeled PLC-β2; conditions: FRET
T4 construct: made in house; host or cells: Sf9 cells; purified as in Runnel et al. 1996
T4 sequence (Q00722 whole entry): as the sequence (Q00722 whole entry) above
Procedure: For fluorescent resonance energy transfer experiments, recombinant PLC-β2 was expressed in Sf9 cells and purified as described (Runnel et al., 1996, Biochem. 35, 16824) and labeled with the amine-reactive probe, Cascade Blue acetyl azide (Molecular Probes, Eugene Oreg.) by raising the pH to 8.0 and adding a 4-fold excess of probe from a freshly prepared concentrated DMF solution. The reaction was kept on ice for 30 minutes before extensive dialysis in a solution comprising 20 mM Hepes, 0.16 M NaCl, 1 mM DTT, pH 7.2 to remove excess probe. Peptides were labeled with DABMI (4-dimethyl-5aminophenylazophenyl-4′-maleimeide) using an equimolar amount of dye in the absence of reducing agents. The reaction was allowed to proceed for 30 minutes at room temperature before quenching with 5 mM DTT. The final labeling ratios, as determined by absorption, were 1:1 for CB-PLC-β2 and 0.8 for the two DABMI-peptides. Fluorescence spectra were taken on an ISS-PCL (ISS Champaign, Ill.) photon counting spectrofluorometer using a 3×3 mm cuvette and exciting at 380 nm and scanning from 400-560 nm.

Substance: Gβ96-98: three amino acid peptide encoding Gβ residues 96-98 (RSS)
stimulation of PLC-β2 activity by peptide itself (in words) [1]: did not stimulate

Substance: S97,98R Gβ86-105 peptide: Gβ86-105 peptide with both serines 97 and 98 substituted with arginine (TTNKVHAIPLRRRWVMTCAY)
increase in affinity of PLC-β2 stimulation versus Gβ86-105 peptide ([1]; substituted Gβ86-105 peptides): five-fold increase

Substance: S97, 98D Gβ96-101: six amino acid Gβ96-101 peptide with serines 97 and 98 substituted with Asp (RDDWVM)
stimulation of PLC-β2 activity by peptide itself (in words) [1]: did not stimulate

Substance: Gβ96-101: six amino acid peptide encoding Gβ residues 96-101 (SEQ ID NO:8) (RSSWVM; listed as Homo sapiens)
stimulation of PLC-β2 activity by peptide itself (in words) [1]: did stimulate
affinity of PLC-β2 stimulation compared with parent or comparator peptide (in words) [1]: considerably lower affinity

Substance: R96A: Gβ86-105 peptide with R96A substitution (TTNKVHAIPLASSWVMTCAY)
affinity of PLC-β2 stimulation compared with parent or comparator peptide (in words) [1]: decreased the affinity; also recorded: large shift in affinity
maximal stimulation / efficacy on PLC-β2 (in words) [1]: did not affect maximal stimulation

Substance: Gβ89-101: thirteen amino acid peptide encoding Gβ residues 89-101 (SEQ ID NO:7) (KVHAIPLRSSWVM; listed as Homo sapiens)
stimulation of PLC-β2 activity by peptide itself (in words) [1]: did stimulate

Substance: S98R Gβ96-101: six amino acid Gβ96-101 peptide with arginine substituted at position 98 (RSRWVM; UniProt P62873 96-101, looked up, variant S98R)
affinity of PLC-β2 stimulation compared with parent or comparator peptide (in words) [1]: increase affinity

Substance: S97, 98D: Gβ86-105 peptide with serines 97 and 98 substituted (D per FIG. 7C legend; text says asparagine) (TTNKVHAIPLRDDWVMTCAY; not fully specified)
stimulation of PLC-β2 activity by peptide itself (in words) [1]: inactive

Substance: H91A: Gβ86-105 peptide with H91A substitution (TTNKVAAIPLRSSWVMTCAY)
affinity of PLC-β2 stimulation compared with parent or comparator peptide (in words) [1]: decreased the affinity
maximal stimulation / efficacy on PLC-β2 (in words) [1]: did not affect maximal stimulation

Substance: S97R substituted peptide: six amino acid Gβ96-101 peptide with arginine at position 97 (SEQ ID NO:10) (RRSWVM; listed as Homo sapiens)
affinity of PLC-β2 stimulation compared with parent or comparator peptide (in words) [1]: increase affinity; also recorded: higher affinity

More lines, main results first:

affinity of PLC-β2 stimulation compared with parent or comparator peptide (in words) [1]: greatly reduced affinity
Substance: S97, 98C: Gβ86-105 peptide with serines 97 and 98 substituted with cysteine (TTNKVHAIPLRCCWVMTCAY)

inhibition of Gβγ-stimulated AC2 activity (adenylyl cyclase 2 (AC2)): much less efficacious
inhibition of Ca2+/CaM-stimulated AC1 activity by peptide alone (in words) (adenylyl cyclase 1 (AC1)): greatly reduced capacity to inhibit
blockade of Gβγ inhibition of Ca2+/CaM-stimulated AC1 (adenylyl cyclase 1 (AC1)): did not affect
stimulation of PLC-β2 activity by peptide itself (in words) [1]: not capable of activating
binding to PLC-β2 (in words) (PLC-β2): did not display measurable binding
Substance: m-TTN: Gβ86-105 peptide with Met-101 substituted by Asn (TTNKVHAIPLRSSWVNTCAY)

inhibition of Gβγ-stimulated AC2 activity (adenylyl cyclase 2 (AC2)): less effective
blockade of Gβγ inhibition of Ca2+/CaM-stimulated AC1 (adenylyl cyclase 1 (AC1)): no effect
effect on Gβγ stimulation of PLC-β2 (in words) [1]: inactive
Substance: m-GGL: Gβ115-135 peptide with Tyr-124 converted to Val (GGLDNICSIVNLKTREGNVRV)
inhibition of Ca2+/CaM-stimulated AC1 activity by peptide alone (in words) (adenylyl cyclase 1 (AC1)): did not inhibit the AC1 activity as extensively

affinity of PLC-β2 stimulation compared with parent or comparator peptide (in words) [1]: decreased the affinity
maximal stimulation / efficacy on PLC-β2 (in words) [1]: did not affect maximal stimulation
Substance: K89A: Gβ86-105 peptide with K89A substitution (TTNAVHAIPLRSSWVMTCAY)

effect on Gβγ stimulation of PLC-β2 (in words) [1]: did not affect
stimulation of PLC-β2 activity by peptide itself (in words) [1]: did not stimulate
Substance: K89A, H91A, and R96A triple substituted peptide: Gβ86-105 peptide with K89, H91 and R96 substituted simultaneously (TTNAVAAIPLASSWVMTCAY; UniProt P62873 86-105, looked up, variant K89A H91A R96A)

stimulation of PLC-β2 activity by peptide itself (in words) [1]: no measurable effects
Substance: FLLT: unrelated peptide encoding region 660-688 of adenylyl cyclase 6, same overall charge as Gβ86-105 (KYSRKVDPRFGAYVACALLVFCFICFIQL; UniProt O43306 660-688, looked up, fragment) [reference compound]
